# Values of other authors as cited in article PMC9965408.
# Target: plasmin (Homo sapiens) (UniProt P00747)
# Sequence of UniProt P00747 (P00747 581-810): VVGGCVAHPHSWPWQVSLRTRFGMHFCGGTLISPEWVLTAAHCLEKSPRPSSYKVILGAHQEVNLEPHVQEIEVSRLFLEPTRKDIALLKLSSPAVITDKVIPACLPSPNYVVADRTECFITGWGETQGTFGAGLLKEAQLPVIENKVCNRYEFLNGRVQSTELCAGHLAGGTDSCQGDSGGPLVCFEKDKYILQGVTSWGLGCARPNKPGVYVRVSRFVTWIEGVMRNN
substance,measurement,value
AaTI (from UniProt Q177W0),Ki,7 µM
